From patent US20250320277A1 come the findings set out here.

The target in test [1] is CHIKV p62-E1 (Chikungunya virus). Briefly: ELISA, plate-coated p62-E1, eight-point mAb dilution. On the technique in general: An ELISA detects its analyte on a solid surface through an enzyme-linked reagent.
Test [2] deals with MAYV p62-E1 (Mayaro virus (BeAr 20290)). The description is as above.
Test [3] addresses CHIKV p62-E1 (Chikungunya virus).
The target is the same in test [4]. Briefly: BLI, mAb on anti-human Fc sensor. (Biolayer interferometry detects binding as a change in optical thickness at a sensor tip.)
The target is the same in test [5]. The test is described as follows: BLI, […], global 1:1 fit; […].

B1: DC2.M287 (antibody, V domains shown)
VH: EVQLVESGGGLVQPGGSLRLSCAASGFTFRDYWMIWVRQTPGKGLEWVANINRNGNEKHYVDSLKGRFTISRDNTKNSLYLQVNGLSAEDTAVYYCVRDSSPSFGPGNYYDAFDIWGQGTTVTVSS
VL: DIRVTQSPSSLSASVGDRVTITCRASQDIRNEVGWYQQKPGQAPKVLIFAASTLQSGVPSRFRGSGSGTVFTLTISSLQPEDLATYYCLQDFNYPRTFGQGTKVDIK
As usually defined, the EC50 is the concentration that produces a half-maximal response. B1: in test [1], the EC50 is 43 nM.

B2: DC2.M342 (antibody, V domains shown)
VH: QVQLVQSGAEVKKSGSSVTVSCKASGSTFISHAISWVRQAPGEGLEWMGRLIPVSGTPKYAHKFQGRLTITADDSTTTVYLTLRSLRFEDTAVYYCATWDADSTTLLYYFMDVWGKGTTVTVSS
VL: DIQVTQSPSTLSASVGDRVTITCRASQSISRWLAWYQQKPGKAPKLLIYKASSLESGVPSRFSGTGSGTEFTLTISSLQPDDFATYYCQQYNSYSTWTFGQGTKLEIK
On to B2, for which the values for the 50% effective concentration (EC50) in test [1] and in test [2] were 35 nM and 130 nM, respectively.

B3: DC2.M336 (antibody, V domains shown)
VH: QVQLVQSGGRLVKPGGSLRLSCAASGFTIIDSYMSWIRQAPGKGLEWISYINPSGSVIYYSDSVKGRFISSRDNAKNSVYLQLSSLRAEDAAVYYCARGIYDQSDAFDLWGQGTTVTVSS
VL: DIVLTQSPSSLSASVGDRVTITCRASQGISNSLAWYQQRPGKAPKLLIYGASRLGSGVPSRFSGSGSGADYTLTISGLQPEDFATYYCQQYYITPPMTFGPGTKVDIK
For the molecule B3, the figures for the EC50 in test [1] and in test [2] were 0.9 nM and 12.5 nM, respectively.

B4: DC2.M301 (antibody, V domains shown)
VH: QVQLVQSGAEVKKPGAAVKVSCKASGYTFSGYYIHWVRQAPGQGLEWMGWINPNSGGTDFAQKFQGRVTMTRDTSISTAYMELSRLRSDDTAVYLCSRDPGYTYGYPLGYWGQGTLVTVSS
VL: ETTLTQSPGTLSLSPGERATLSCRASQSVSSSYLAWYQQKPGQAPRLLIYGTSSRATGIPDRFSGRGSGTDFTLTISRLEPEDFAVYYCQQYGNSPPYTFGQGTKVDIK
One may read the kon as the rate constant with which the complex forms. Low values mean slower complex formation, high ones faster complex formation. One may read the Kd as the constant that tells how readily two partners part at equilibrium. A low value points to tighter binding. In turn, B4 showed a kon in test [3] of 260000 M⁻¹ s⁻¹. In addition, the fold higher binding affinity for CHIKV p62-E1 than MAYV p62-E1 in test [4] stood at 10 fold. The molecule further yielded a Kd in test [5] of 1.6 nM. The molecule further gave an EC50 in test [1] of 0.88 nM.

B5: DC2.M5 (antibody, V domains shown)
VH: EVQLVESGGGLVQPGGSLSLACEVSGFILSDHYIDWVRQAPGKGLEWVGRSRNKAKRYTTEYAASVKGRFTISRDDSNNSLYLLMKSLKTEDTAVYFCTRAGYYDKNGDSLDALDIWGQGTMVTVSS
VL: DIQVTQSPSSLSASVGDRVTITCRTSQTVSSNLNWYQQRPGKAPKLLISGISDLHSGVPSRFSGSGSGTDSTLTISSLQPEDSATYYCQQSYSLPRTFGQGTKVEIK
On to B5, for which the results for the concentration for a half-maximal effect (EC50) in test [1] and in test [2] were 33 nM and 39 nM, respectively.

B6: DC2.M17 (antibody, V domains shown)
VH: EVQLVESGSELKKPGASVRVSCEASGYSFTSHTIVWMRQAPGQGLECLGWINTNTGNPTYAQGFTGRFVFSLDTSVSTAYLQISSLKAADTAVYYCARVLKCLGGSASCSGHGYYDYGMAVWGQGTTVTVSS
VL: DIVLTQSPLSLPVTPGEPASISCRSSQSLLHSNGYNFLHWYLQKPGQSPQLLIYLGSIRASGVPDRFSGSGSGTDFTLKISRVEAEDVGVYYCMQALQTFMYTFGQGTKLEIK
In turn, B6 returned an EC50 in test [1] of 0.9 nM.
